Residue numbers refer to the chain shown, from its start. Where two headings read alike, the source gives them in different places.
Tests used:
[1] = biological target: T1, human 5T4 on the cell surface (human, UniProt Q13641 32-420); experiment: cell binding assay on 5T4-expressing tumor cells (cell line not given)
T1 construct: whole, on cells; also called h5T4; TPBG
T1 sequence (looked up): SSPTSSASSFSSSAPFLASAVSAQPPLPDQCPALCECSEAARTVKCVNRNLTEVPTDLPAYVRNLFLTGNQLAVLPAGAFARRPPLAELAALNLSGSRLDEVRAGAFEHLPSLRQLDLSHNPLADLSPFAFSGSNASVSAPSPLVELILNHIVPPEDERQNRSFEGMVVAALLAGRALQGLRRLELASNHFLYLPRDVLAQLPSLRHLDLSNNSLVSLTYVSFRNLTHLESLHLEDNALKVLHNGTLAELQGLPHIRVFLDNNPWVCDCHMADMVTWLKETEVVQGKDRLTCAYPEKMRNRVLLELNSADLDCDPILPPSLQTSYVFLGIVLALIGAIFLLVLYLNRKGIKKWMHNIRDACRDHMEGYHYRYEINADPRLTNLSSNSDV

[2] = biological target: T1, human 5T4 on the cell surface; experiment: flow cytometry on 5T4+ H1975 cells
[3] = biological target: T1, human 5T4 on the cell surface; experiment: cell-based or functional assay
[4] = biological target: T1, human 5T4 on the cell surface; experiment: flow cytometry on H1975 cells, FOB
[5] = biological target: T1, human 5T4 on the cell surface; experiment: flow cytometry on H1975 cells, FOB; remark: listed apart in the source

B1: AB1878-TriNKET® (bispecific antibody, human IgG1, kappa)
chain: DIQLTQSPSSLSASVGDRVTITCRASQSVTTSNYNYMHWFQQKPGKAPKLLIKFASNLESGVPSRFSGSGSGTDFTLTISSLQPEDFATYYCQHSWEIPWTFGCGTKVEIKGGGGSGGGGSGGGGSGGGGSEVQLVESGGGLVKPGGSLRLSCAASRFTFSDFGMHWVRQAPGKCLEWVSYISSGSSTIYYADTVKGRFTISRDNAKNSLYLQMNSLRAEDTAVYYCASSQSYYRGTLDYWGQGTTVTVSSGSDKTHTCPPCPAPELLGGPSVFLFPPKPKDTLMISRTPEVTCVVVDVSHEDPEVKFNWYVDGVEVHNAKTKPREEQYNSTYRVVSVLTVLHQDWLNGKEYKCKVSNKALPAPIEKTISKAKGQPREPRVYTLPPCRDELTKNQVSLTCLVKGFYPSDIAVEWESNGQPENNYKTTPPVLVSDGSFTLYSKLTVDKSRWQQGNVFSCSVMHEALHNHYTQKSLSLSPG
heavy: EVQLVESGGGLVKPGGSLRLSCAASGFTFSSYSMNWVRQAPGKGLEWVSSISSSSSYIYYADSVKGRFTISRDNAKNSLYLQMNSLRAEDTAVYYCARGAPIGAAAGWFDPWGQGTLVTVSSASTKGPSVFPLAPSSKSTSGGTAALGCLVKDYFPEPVTVSWNSGALTSGVHTFPAVLQSSGLYSLSSVVTVPSSSLGTQTYICNVNHKPSNTKVDKKVEPKSCDKTHTCPPCPAPELLGGPSVFLFPPKPKDTLMISRTPEVTCVVVDVSHEDPEVKFNWYVDGVEVHNAKTKPREEQYNSTYRVVSVLTVLHQDWLNGKEYKCKVSNKALPAPIEKTISKAKGQPREPQVCTLPPSRDELTENQVSLTCLVKGFYPSDIAVEWESNGQPENNYKTTPPVLDSDGSFFLYSWLTVDKSRWQQGNVFSCSVMHEALHNHYTQKSLSLSPG
light: DIQMTQSPSSVSASVGDRVTITCRASQGISSWLAWYQQKPGKAPKLLIYAASSLQSGVPSRFSGSGSGTDFTLTISSLQPEDFATYYCQQGVSFPRTFGGGTKVEIKRTVAAPSVFIFPPSDEQLKSGTASVVCLLNNFYPREAKVQWKVDNALQSGNSQESVTEQDSKDSTYSLSSTLTLSKADYEKHKVYACEVTHQGLSSPVTKSFNRGEC
notes: F3′ format; also called AB1878-VL-VH TriNKET®; 10F10-IGHV3-21*05 BM1
B1 was tested, and the EC50 [1] was 10.1 nM and the “Max Fold Over Background (FOB)” value [1] was 71.6 fold over background.

B2: AB1881-TriNKET® (bispecific antibody, human IgG1, kappa)
chain: B1 chain with V136L, K144Q, V179I, S180A, S209T
heavy: B1 heavy
light: B1 light
notes: F3′ format; also called AB1881-VL-VH TriNKET®; 10F10-IGHV3-23*03 BM2
In the case of B2, the EC50 [1] is reported as 7.28 nM and the “Max Fold Over Background (FOB)” value [1] is reported as 72.5 fold over background.

B3: AB1882-TriNKET® (bispecific antibody, human IgG1, kappa)
chain: B1 chain with K144Q
heavy: B1 heavy
light: B1 light
notes: F3′ format; also called AB1882-VL-VH TriNKET®; 10F10-IGHV3-48*01 BM1
For B3, the EC50 [1] was 8.55 nM and the “Max Fold Over Background (FOB)” value [1] was 71.8 fold over background.

B4: AB1884-TriNKET® (bispecific antibody, human IgG1, kappa)
chain: B1 chain with K144Q, V179I, S180A
heavy: B1 heavy
light: B1 light
notes: F3′ format; also called AB1884-VL-VH TriNKET®; 10F10-IGHV3-48*01 BM2
For B4, the EC50 [1] was 6.08 nM and the “Max Fold Over Background (FOB)” value [1] was 70.5 fold over background.

B5: AB1885-TriNKET® (bispecific antibody, human IgG1, kappa)
chain: B1 chain with E132Q, V179I, S180A
heavy: B1 heavy
light: B1 light
notes: F3′ format; also called AB1885-VL-VH TriNKET®; 10F10-IGHV3-11*01 BM2
With B5 the EC50 [1] was 5.37 nM and the “Max Fold Over Background (FOB)” value [1] was 68 fold over background.

B6: AB1886-TriNKET® (bispecific antibody, human IgG1, kappa)
chain: B1 chain with V168I
heavy: B1 heavy
light: B1 light
notes: F3′ format; also called AB1886-VL-VH TriNKET®; 10F10-IGHV3-11*01 BM1
For B6, the EC50 [1] was 5.65 nM and the “Max Fold Over Background (FOB)” value [1] was 73.5 fold over background.

B7: AB1887-TriNKET® (bispecific antibody, human IgG1, kappa)
chain: B1 chain with V179I, S180A
heavy: B1 heavy
light: B1 light
notes: F3′ format; also called AB1887-VL-VH TriNKET®; 10F10-IGHV3-21*05 BM2
In the case of B7, the EC50 [1] is reported as 10.2 nM and the “Max Fold Over Background (FOB)” value [1] is reported as 75 fold over background.

B8: AB1892-TriNKET® (bispecific antibody, human IgG1, kappa)
chain: B1 chain with V136L, K144Q, A206S, S209T
heavy: B1 heavy
light: B1 light
notes: F3′ format; also called AB1892-VL-VH TriNKET®; 10F10-IGHV3-23*03 BM1
For B8, the EC50 [1] was 4.21 nM and the “Max Fold Over Background (FOB)” value [1] was 60 fold over background.

B9: 10F10 multispecific binding protein (F0) (bispecific antibody, V domains shown)
VH: EVQLQESGGGLVKPGGSRRLSCAASRFTFSDFGMHWVRQAPEKGLEWIAYISSGSSTIYYADTVKGRFTISRDNAKNTLFLQMTSLRSEDTAMYYCASSQSYYRGTLDYWGQGTSVTVSS
VL: DIVLTQSPASLAVTLGQRATISCRASQSVTTSNYNYMHWFHQKPGQPPKLLIKFASNLESGVPARFSGSGSGTDFTLNIHPVEEEDIATYYCQHSWEIPWTFGGGTKLEIK
For B9, the EC50 [2] was 3.4 nM, the “Max (FOB)” value [2] was 17.9 fold over background and the “lysis of H1975 cells by KHYG-CD16V cells, EC50” value [3] was 0.059 nM.

B10: 8E06 multispecific binding protein (F0) (bispecific antibody, V domains shown)
VH: EVQLQESGAEMVRPGASVKLSCKASGYTFTSYWMHWVKQRPGQGLEWIGKIDSSDSKTQYNQKFKDKATLTVDKSSITVYMELNSLTSEDSAVYYCARGGYLWFAYWGQGTLVTVSA
VL: B9 VL with L4M, T14S, T30S, N33T, N35S, F40Y, H41Q, P47S, K53T, F54Y
notes: also called 08E06
B10 was tested, and the EC50 [2] was greater than 12 nM and the “lysis of H1975 cells by KHYG-CD16V cells, EC50” value [3] was 0.51 nM.

B11: AB1011 (antibody, V domains shown)
VH: EVQLVESGGGLVKPGGSLRLSCAASGFTFSDYGMHWVRQAPGKGLEWVSYISSGSSTFYYADTVKGRFTISRDNAKNSLYLQMNSLRAEDTAVYYCGSSQSYYRGTMDYWGQGTTVTVSS
VL: DIQLTQSPSSLSASVGDRVTITCRASQGVSTSTYTYMHWFQQKPGKAPKLLIKFASNLESGVPSRFSGSGSGTDFTLTISSLQPEDFATYYCQHSWEIPWTFGGGTKVEIK
notes: member of the group m33
B11: binds [4].

B12: AB1012 (antibody, V domains shown)
VH: B11 VH
VL: B11 VL with M37L
notes: member of the group m33
B12: binds [4].

B13: AB1013 (antibody, V domains shown)
VH: B11 VH
VL: B11 VL with M37V
notes: member of the group m33
B13: binds [4].

B14: AB1014 (antibody, V domains shown)
VH: B11 VH with M107I
VL: B11 VL
notes: member of the group m33
B14: binds [4].

B15: AB1015 (antibody, V domains shown)
VH: B11 VH with M107I
VL: B11 VL with M37L
notes: member of the group m33
B15: binds [4].

B16: AB1016 (antibody, V domains shown)
VH: B11 VH with M107I
VL: B11 VL with M37V
notes: member of the group m33
B16: binds [4].

B17: AB1017 (antibody, V domains shown)
VH: B11 VH with A23E, V48L, S49A
VL: B11 VL
notes: member of the group m33
B17: binds [5].

B18: AB1018 (antibody, V domains shown)
VH: B11 VH with A23E, V48L, S49A
VL: B11 VL with M37L
notes: member of the group m33
B18: binds [5].

B19: AB1019 (antibody, V domains shown)
VH: B11 VH with A23E, V48L, S49A
VL: B11 VL with M37V
notes: member of the group m33
B19: binds [5].

Source: patent US20230203202A1 (DRAGONFLY THERAPEUTICS, published 2023)
